Data on 15 compounds can be found in patent publication US20260184748A1, “COMPOSITIONS COMPRISING OCTADECANEUROPEPTIDES (ODN) AND SYNTHETIC DERIVATIVES THEREOF AND METHODS OF USE FOR MODULATION OF FOOD INTAKE, OBESITY, BODY WEIGHT, NAUSEA, AND EMESIS” (The Trustees of the University of Pennsylvania, priority 2022, published 2026).

Common to all, as to experiment: Arrestin agonist mode
Common to all, as to type: cell-based

For one assay, the target named is EBI2 (Homo sapiens, UniProt P32249).
A further assay has as its target FFAR1 (Homo sapiens, UniProt O14842). The note with it: read-out: RC50 (the source's name).
The next assay deals with CRTH2 (Homo sapiens, UniProt Q9Y5Y4). The note with it: read-out: RC50 (the source's name).
The target in another assay is EDG1 (Homo sapiens, UniProt P21453). The note with it: read-out: RC50 (the source's name).
In another assay the target is EDG6 (Homo sapiens, UniProt O95977). The note with it: read-out: RC50 (the source's name).
The target of another assay is EDG3 (Homo sapiens, UniProt Q99500). The note with it: read-out: RC50 (the source's name).
The next assay addresses CCR2 (Homo sapiens, UniProt P41597). The note with it: read-out: RC50 (the source's name).
For a further assay, the target named is CCR5 (Homo sapiens, UniProt P51681). The note with it: read-out: RC50 (the source's name).
For a further assay, the target named is T1, CCR1 (Homo sapiens, UniProt P32246).
T1 sequence (P32246 1-355): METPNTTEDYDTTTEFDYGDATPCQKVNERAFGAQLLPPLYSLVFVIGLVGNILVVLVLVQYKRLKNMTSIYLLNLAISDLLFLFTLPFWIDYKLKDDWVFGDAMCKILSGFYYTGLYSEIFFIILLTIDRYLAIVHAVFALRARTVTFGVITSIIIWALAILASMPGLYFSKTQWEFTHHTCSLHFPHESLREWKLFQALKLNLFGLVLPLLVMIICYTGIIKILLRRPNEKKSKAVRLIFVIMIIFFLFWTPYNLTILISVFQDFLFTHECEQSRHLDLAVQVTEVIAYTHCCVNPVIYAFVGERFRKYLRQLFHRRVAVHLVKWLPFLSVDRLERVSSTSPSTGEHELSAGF
The note with it: read-out: RC50 (the source's name).

The target of a further assay is T2, CCR3 (Homo sapiens, UniProt P51677).
T2 sequence (P51677 1-355): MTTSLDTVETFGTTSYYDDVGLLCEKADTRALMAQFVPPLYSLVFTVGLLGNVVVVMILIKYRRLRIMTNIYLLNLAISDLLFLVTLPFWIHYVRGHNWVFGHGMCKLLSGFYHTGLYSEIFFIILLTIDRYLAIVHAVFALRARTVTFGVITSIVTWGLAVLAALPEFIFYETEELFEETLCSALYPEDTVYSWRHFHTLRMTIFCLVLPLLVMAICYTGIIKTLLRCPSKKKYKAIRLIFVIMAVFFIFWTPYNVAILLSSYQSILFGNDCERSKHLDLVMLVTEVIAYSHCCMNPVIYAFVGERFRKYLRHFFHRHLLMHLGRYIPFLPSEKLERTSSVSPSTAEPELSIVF
The note with it: read-out: RC50 (the source's name).

In the next assay the target is T3, CCR7 (Homo sapiens, UniProt P32248).
T3 sequence (P32248 25-378): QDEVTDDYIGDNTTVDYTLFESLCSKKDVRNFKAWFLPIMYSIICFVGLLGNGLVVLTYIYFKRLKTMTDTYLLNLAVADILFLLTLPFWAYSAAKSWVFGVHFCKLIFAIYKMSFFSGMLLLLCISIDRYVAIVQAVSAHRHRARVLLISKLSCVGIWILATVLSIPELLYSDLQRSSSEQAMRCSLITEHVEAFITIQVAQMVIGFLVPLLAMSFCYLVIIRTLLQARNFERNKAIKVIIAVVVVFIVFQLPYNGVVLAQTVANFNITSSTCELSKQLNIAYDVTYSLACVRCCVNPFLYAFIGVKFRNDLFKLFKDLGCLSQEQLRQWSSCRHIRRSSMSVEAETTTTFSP
The note with it: read-out: RC50 (the source's name).

The next assay deals with T4, CCR6 (Homo sapiens, UniProt P51684).
T4 sequence (P51684 1-374): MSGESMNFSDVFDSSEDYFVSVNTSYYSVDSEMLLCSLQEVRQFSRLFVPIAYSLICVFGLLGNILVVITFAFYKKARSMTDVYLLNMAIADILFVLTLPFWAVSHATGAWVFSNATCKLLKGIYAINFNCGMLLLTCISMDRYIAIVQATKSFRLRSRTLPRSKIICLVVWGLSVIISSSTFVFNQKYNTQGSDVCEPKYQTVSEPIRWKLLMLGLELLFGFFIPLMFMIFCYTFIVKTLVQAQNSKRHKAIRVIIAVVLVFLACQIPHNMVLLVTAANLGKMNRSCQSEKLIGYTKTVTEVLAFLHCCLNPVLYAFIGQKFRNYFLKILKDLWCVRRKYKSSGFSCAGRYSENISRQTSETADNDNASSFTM
The note with it: read-out: RC50 (the source's name).

The next assay addresses T5, CXCR2 (Homo sapiens, UniProt P25025).
T5 sequence (P25025 1-360): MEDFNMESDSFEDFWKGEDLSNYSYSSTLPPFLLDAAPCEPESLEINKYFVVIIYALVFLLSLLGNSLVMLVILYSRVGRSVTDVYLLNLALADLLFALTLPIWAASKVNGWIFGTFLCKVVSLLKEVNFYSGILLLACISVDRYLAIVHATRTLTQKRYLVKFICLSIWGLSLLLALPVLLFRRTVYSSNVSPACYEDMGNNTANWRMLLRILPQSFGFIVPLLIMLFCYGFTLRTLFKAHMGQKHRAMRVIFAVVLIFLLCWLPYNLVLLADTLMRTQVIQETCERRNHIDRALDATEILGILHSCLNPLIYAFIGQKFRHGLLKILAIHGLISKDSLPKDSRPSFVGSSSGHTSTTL
The note with it: read-out: RC50 (the source's name).

For a further assay, the target named is T6, CXCR1 (Homo sapiens, UniProt P25024).
T6 sequence (P25024 1-350): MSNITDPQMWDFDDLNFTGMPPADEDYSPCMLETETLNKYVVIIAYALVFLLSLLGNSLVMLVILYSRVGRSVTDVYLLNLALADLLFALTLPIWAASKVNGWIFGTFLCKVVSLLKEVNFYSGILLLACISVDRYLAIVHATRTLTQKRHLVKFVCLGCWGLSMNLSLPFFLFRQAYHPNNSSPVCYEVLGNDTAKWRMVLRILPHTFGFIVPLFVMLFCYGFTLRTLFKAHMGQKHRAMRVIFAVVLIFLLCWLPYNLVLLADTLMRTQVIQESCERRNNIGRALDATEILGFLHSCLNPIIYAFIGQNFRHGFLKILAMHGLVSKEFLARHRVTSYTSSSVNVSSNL
The note with it: read-out: RC50 (the source's name).

The target of a further assay is T7, CXCR3 (Homo sapiens, UniProt P49682).
T7 sequence (P49682 1-368): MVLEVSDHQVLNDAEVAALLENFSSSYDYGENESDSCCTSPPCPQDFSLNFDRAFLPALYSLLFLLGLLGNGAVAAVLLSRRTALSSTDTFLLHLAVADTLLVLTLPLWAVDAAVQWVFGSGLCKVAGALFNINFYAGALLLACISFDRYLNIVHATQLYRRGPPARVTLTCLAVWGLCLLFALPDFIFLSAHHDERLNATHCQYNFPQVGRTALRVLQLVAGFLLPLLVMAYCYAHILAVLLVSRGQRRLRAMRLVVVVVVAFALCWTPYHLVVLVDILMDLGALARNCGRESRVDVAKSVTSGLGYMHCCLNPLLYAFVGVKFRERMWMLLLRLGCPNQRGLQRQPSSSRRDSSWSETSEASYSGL
The note with it: read-out: RC50 (the source's name).

A further assay addresses T8, CXCR5 (Homo sapiens, UniProt P32302).
T8 sequence (P32302 1-372): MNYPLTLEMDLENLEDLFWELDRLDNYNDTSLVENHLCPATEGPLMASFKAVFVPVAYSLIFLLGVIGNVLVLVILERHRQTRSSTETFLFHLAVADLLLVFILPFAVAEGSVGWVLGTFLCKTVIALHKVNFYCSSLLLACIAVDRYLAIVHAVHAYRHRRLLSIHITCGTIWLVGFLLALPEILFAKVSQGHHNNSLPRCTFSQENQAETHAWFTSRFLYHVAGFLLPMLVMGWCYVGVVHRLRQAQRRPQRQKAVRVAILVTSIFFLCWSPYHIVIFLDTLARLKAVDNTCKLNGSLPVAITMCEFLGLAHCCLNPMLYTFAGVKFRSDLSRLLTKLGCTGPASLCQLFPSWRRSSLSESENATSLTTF
The note with it: read-out: RC50 (the source's name).

The next assay deals with T9, GPR1 (Homo sapiens, UniProt P46091).
T9 sequence (P46091 1-355): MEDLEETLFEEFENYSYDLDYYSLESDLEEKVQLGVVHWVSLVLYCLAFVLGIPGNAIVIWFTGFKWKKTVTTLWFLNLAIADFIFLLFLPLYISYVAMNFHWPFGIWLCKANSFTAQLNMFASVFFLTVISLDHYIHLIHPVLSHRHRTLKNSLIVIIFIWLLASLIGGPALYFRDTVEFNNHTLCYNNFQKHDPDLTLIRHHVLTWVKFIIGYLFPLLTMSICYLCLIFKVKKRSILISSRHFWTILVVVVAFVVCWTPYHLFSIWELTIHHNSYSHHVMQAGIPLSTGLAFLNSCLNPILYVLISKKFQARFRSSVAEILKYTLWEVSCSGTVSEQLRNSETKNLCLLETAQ
The note with it: read-out: RC50 (the source's name).

Another assay has as its target T10, CX3CR1 (Homo sapiens, UniProt P49238).
T10 sequence (P49238 1-355): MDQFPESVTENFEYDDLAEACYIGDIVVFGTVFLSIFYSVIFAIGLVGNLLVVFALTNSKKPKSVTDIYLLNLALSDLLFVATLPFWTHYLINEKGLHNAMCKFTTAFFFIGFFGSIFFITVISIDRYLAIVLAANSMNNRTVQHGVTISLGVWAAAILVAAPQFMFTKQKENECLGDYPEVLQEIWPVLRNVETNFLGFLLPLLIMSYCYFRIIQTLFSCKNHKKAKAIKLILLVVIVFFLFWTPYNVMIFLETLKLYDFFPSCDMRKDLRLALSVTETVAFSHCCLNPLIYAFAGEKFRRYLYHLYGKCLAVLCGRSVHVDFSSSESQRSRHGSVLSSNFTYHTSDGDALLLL
The note with it: read-out: RC50 (the source's name).

In the next assay the target is GPR103 (Homo sapiens, UniProt Q96P65). The note with it: read-out: RC50 (the source's name).

Where no end group is shown, it is not given here.

Sequence of GPR103 (Q96P65 whole entry): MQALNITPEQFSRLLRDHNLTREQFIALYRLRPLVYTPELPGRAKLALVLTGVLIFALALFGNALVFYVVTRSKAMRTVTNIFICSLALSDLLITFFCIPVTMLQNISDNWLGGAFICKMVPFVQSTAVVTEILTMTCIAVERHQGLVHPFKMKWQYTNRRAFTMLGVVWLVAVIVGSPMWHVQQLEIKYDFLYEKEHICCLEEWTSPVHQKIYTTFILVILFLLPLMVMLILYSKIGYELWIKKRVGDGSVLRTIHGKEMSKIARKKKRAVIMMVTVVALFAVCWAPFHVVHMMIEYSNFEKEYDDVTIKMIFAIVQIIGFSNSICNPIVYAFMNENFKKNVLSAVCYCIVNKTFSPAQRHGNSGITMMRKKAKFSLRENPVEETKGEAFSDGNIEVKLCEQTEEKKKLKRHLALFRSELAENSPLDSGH
Sequence of EDG6 (O95977 whole entry): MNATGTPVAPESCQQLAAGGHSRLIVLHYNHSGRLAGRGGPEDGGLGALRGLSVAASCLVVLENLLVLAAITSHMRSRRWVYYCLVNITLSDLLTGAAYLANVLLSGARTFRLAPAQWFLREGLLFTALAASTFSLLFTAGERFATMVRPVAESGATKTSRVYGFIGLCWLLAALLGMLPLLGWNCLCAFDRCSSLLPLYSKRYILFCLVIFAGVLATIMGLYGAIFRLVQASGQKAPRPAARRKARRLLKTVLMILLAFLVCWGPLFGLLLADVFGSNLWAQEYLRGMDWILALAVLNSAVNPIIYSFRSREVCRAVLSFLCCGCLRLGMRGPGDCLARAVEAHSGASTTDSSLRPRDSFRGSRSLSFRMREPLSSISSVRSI
Sequence of EDG3 (Q99500 whole entry): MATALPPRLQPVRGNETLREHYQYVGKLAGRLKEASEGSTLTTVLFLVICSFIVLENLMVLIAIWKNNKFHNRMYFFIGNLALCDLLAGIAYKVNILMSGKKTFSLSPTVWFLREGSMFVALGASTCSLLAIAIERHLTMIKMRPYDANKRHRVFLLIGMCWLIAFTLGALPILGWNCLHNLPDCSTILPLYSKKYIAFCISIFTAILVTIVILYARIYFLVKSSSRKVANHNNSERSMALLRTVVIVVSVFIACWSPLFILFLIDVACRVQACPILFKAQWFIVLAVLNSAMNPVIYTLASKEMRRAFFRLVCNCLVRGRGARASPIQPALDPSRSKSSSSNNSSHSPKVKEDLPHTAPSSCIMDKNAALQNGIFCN
Sequence of CRTH2 (Q9Y5Y4 whole entry): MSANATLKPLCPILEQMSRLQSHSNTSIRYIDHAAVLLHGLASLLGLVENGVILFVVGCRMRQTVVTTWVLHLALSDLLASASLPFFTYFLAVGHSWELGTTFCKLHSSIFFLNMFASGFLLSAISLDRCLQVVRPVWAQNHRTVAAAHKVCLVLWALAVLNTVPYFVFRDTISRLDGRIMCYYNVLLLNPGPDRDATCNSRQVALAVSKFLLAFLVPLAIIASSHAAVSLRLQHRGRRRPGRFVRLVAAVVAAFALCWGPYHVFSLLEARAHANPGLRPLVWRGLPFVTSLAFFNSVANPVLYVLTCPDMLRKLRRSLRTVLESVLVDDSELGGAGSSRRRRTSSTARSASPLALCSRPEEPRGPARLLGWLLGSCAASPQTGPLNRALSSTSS
Sequence of EDG1 (P21453 whole entry): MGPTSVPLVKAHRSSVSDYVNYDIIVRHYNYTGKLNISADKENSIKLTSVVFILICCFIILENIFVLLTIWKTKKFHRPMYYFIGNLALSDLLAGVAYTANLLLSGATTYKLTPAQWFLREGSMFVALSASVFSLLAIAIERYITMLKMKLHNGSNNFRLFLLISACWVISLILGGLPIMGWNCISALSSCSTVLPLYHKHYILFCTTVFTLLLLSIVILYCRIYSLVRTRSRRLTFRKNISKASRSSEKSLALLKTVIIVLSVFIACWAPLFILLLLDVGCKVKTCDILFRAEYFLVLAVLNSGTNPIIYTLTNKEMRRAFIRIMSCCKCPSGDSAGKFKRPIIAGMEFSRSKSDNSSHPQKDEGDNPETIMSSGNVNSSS
Sequence of CCR5 (P51681 whole entry): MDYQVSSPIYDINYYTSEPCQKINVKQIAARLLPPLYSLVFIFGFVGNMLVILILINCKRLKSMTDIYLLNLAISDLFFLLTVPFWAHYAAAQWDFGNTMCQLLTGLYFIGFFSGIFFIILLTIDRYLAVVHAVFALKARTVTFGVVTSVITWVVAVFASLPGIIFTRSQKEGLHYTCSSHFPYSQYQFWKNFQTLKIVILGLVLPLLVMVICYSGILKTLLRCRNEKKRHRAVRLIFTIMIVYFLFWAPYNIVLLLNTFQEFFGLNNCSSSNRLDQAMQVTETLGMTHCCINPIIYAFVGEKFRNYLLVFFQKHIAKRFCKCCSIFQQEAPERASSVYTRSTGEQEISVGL
Sequence of FFAR1 (O14842 whole entry): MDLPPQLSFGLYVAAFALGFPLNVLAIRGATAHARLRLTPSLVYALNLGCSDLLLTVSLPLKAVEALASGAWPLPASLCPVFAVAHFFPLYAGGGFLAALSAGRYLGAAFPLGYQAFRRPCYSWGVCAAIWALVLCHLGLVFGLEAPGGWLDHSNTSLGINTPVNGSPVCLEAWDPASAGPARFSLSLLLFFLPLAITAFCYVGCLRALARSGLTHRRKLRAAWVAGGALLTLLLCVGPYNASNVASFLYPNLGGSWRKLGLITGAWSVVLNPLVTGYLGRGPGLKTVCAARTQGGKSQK
Sequence of CCR2 (P41597 whole entry): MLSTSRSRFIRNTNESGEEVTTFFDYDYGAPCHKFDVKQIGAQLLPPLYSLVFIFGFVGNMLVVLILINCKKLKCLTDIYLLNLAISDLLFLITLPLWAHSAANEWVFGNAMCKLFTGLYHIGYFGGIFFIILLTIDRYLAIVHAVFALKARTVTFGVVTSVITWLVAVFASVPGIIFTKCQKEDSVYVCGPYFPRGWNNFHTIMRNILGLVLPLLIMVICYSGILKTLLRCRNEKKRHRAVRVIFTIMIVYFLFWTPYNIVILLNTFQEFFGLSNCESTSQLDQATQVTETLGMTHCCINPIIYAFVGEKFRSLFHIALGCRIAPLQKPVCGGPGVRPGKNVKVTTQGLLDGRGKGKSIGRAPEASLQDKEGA
Sequence of EBI2 (P32249 whole entry): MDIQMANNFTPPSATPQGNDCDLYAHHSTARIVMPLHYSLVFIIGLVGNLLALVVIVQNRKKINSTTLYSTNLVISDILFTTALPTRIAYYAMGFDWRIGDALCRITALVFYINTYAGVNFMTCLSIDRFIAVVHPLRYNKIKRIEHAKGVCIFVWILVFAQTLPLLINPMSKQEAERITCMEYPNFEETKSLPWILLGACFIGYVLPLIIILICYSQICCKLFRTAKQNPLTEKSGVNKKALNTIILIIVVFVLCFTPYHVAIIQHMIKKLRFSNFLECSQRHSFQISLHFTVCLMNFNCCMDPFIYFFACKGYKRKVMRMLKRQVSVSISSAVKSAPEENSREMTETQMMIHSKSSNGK

In the case of `C[C@H](CCCC(C)(C)O)[C@H]1CC[C@H]2[C@@H]3[C@H](O)C=C4C[C@@H](O)CC[C@]4(C)[C@H]3CC[C@]12C` [7a,25-Dihydroxycholesterol], at EBI2, the EC50 was determined as 3.63 nM.

Turning to `O=C(O)CCc1ccc(NCc2cccc(Oc3ccccc3)c2)cc1` [GW9508], the EC50 at FFAR1 was found to be 959 nM.

As for `CCCCC[C@H](O)/C=C/[C@H]1C(=O)C[C@H](O)[C@@H]1C/C=C\CCCC(=O)O` [PGD2], the EC50 on CRTH2 was found to be 3.34 nM.

Turning to `CCCCCCCCCCCCC/C=C/[C@@H](O)[C@@H](N)COP(=O)(O)O` [S-1-P], the EC50 at EDG1 amounted to 19 nM; at EDG6, 30.5 nM; on EDG3, 10.6 nM.

In the case of CCL2: control agonist, in the assay with CCR2, the EC50 stood at 2.63 nM.

Turning to CCL3: control agonist, the EC50 in the assay with CCR5 was determined as 7.55 nM; with CCR1 it was 1.04 nM.

On to CCL13: control agonist, for which the EC50 in the assay with CCR3 amounted to 40.6 nM.

On to CCL19: control agonist, for which the EC50 with CCR7 amounted to 5.65 nM.

On to CCL20: control agonist, for which the EC50 in the assay with CCR6 is 2.95 nM.

For the compound CXCL8: control agonist, the EC50 was found to be 0.304 nM in the assay with CXCR2 and 2.8 nM in the assay with CXCR1.

In the case of CXCL11: control agonist, the EC50 with CXCR3 was 12 nM.

As for CXCL13: control agonist, the EC50 with CXCR5 was 21 nM.

For the compound Chemerin: control agonist, the EC50 with GPR1 came to 2.26 nM.

As for Fractalkine: control agonist, the EC50 in the assay with CX3CR1 amounted to 0.444 nM.

In the case of “TSGPLGNLAEELNGYSRKKGGFSFRF-NH2 (C-terminus assumed) [QRFP-26]”, at GPR103, the EC50 turned out to be 10 nM.
